Experimental findings from IntAct's records for PubMed 25203555 are described below.

The chains are these.
B1: Uncharacterized protein C1322.02 (Schizosaccharomyces pombe (strain ATCC 38366 / 972)), O94542 (parent)
chain: MIESKGETAPSLNLNDVNVEENDAAQSFAEKVQRFRYQMKVHAAPRQKTLHSFLKKDNANIHDFTKVEKPHIRSSKSKVSYNSITSRVTKYFEEKNNSVDQLHSESLTPLSFGHTIPKKKPLLMTASVSEDSRVRVSKRQFKSKVVHPEIAISIAKRHKPKFPLSDELMNVEPGFHHSNIGCQITPYLWISSFRTNVYYLIGNEGDLLSQQVPSISGELNMLRGVCTRIDDDNRYDIEQAGSCFGMSVFPTSDSGEESFTTLESDPIVNCEHDEKKVADNLLVPQVMCSSNISTFFRSPGGKKLYHYLWKNSNALRISSNDLLEILLKHGVYVSLDTLHSWLQERNVNFEK
partner: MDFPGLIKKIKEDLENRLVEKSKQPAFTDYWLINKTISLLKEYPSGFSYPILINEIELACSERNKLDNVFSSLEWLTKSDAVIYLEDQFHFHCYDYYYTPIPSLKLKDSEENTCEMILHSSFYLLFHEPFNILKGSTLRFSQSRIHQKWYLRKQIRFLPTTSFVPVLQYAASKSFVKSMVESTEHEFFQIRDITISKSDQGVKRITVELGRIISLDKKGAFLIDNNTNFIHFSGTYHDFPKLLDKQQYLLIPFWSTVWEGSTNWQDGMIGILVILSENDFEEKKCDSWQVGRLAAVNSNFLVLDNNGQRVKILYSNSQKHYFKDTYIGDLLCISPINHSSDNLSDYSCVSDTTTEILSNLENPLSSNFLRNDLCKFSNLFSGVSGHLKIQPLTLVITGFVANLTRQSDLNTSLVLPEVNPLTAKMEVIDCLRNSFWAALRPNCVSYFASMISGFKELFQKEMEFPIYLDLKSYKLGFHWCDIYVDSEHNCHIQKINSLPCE
B2: Uncharacterized protein C1322.02 (Schizosaccharomyces pombe (strain ATCC 38366 / 972)), O94542 (parent)
chain: B1 chain
partner: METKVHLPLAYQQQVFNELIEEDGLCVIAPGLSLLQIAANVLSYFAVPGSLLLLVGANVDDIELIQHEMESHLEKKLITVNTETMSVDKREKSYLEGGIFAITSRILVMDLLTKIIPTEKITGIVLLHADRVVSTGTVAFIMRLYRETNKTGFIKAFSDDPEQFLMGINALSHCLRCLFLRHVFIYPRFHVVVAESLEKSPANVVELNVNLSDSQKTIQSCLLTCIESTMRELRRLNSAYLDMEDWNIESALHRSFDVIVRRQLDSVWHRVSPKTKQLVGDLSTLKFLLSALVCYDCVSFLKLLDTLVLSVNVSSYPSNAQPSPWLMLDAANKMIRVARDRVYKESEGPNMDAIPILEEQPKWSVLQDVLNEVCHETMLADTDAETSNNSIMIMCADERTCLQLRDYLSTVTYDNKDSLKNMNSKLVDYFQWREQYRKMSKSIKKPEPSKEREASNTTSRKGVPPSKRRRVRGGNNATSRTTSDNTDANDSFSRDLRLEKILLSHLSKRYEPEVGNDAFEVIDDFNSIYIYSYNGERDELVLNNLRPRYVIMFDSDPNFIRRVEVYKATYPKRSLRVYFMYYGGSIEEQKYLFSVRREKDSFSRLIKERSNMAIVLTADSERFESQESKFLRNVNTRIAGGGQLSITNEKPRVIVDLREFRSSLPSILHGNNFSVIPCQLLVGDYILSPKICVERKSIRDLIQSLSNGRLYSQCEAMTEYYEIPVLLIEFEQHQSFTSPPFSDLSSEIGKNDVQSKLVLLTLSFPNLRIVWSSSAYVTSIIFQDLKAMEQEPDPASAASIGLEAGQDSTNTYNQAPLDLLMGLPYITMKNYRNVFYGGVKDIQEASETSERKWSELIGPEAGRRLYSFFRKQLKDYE

One test covers variants of B1. Conditions: with cdc24_schpo cdc24, O75004.
MIESKGETAPSLNLNDVNVEENDAAQSFAEKVQRFRYQMKVHAAPRQKTLHSFLKKDNANIHDFTKVEKPHIRSSKSKVSYNSITSRVTKYFEEKNNSVDQLHSESLTPLSFGHTIPKKKPLLMTASVSEDSRVRVSKRQFKSKVVHPEIAISIAKRHKPKFPLSDELMNVEPGFHHSNIGCQITPYLWISSFRTNVYYLIGNEGDLLSQQVPSISGELNMLRGVCTRIDDDNRYDIEQAGSCFGMSVFPTSDSGEESFTTLESDPIVNCEHDEKKVADNLLVPQVMCAANASTAARSPGGKKLYHYLWKNSNALRISSNDLLEILLKHGVYVSLDTLHSWLQERNVNFEK [S289A;S290A;I292A;F295A;F296A]: the “effect of a mutation on the interaction” value was “decreasing interaction strength”.

The next test covers variants of B2. Conditions: with rad16_schpo rad16, P36617.
Take MIESKGETAPSLNLNDVNVEENDAAQSFAEKVQRFRYQMKVHAAPRQKTLHSFLKKDNANIHDFTKVEKPHIRSSKSKVSYNSITSRVTKYFEEKNNSVDQLHSESLTPLSFGHTIPKKKPLLMTASVSEDSRVRVSKRQFKSKVVHPEIAISIDKRHKPKFPLSDELMNVAPGFHHSNIGCQITPYLWISSFRTNVYYLIGNEGDLLSQQVPSISGELNMLRGVCTRIDDDNRYDIEQAGSCFGMSVFPTSDSGEESFTTLESDPIVNCEHDEKKVADNLLVPQVMCSSNISTFFRSPGGKKLYHYLWKNSNALRISSNDLLEILLKHGVYVSLDTLHSWLQERNVNFEK [A155D;E172A]: the “effect of a mutation on the interaction” value is “disrupting interaction strength”.
